Laboratory results from patent US7189694B2, “Inhibitors of autophosphorylation protein kinases” (University of Florida Research Foundation, Inc., priority 2003, dated 2007).
Ends that are not written are not given here.

Tests used:
[1] = target: T1, JAK2 WT peptide (JAK2 autophosphorylation site 1001LPQDKEYYKVKEP) (Homo sapiens, UniProt O60674); assay: ELISA binding of biotinylated JAK2 WT peptide to solid-phase peptides; settings: FIG. 1A; ELISA, peptides coated on 96-well plates
T1 construct: made in house; host or cells: chemical synthesis (Fmoc)
Protocol: Binding assays: For ELISA binding assays Tkip and other peptides to be tested were bound to 96-well plates in 0.1 M carbonate binding buffer (pH 9.6) at a final concentration of 3 μg/well (50 μl). Wells were then washed three times with wash buffer containing 0.9% NaCl and 0.05% tween-20 in PBS and blocked with 2% gelatin and 0.05% tween-20 in PBS for 1 h at room temperature. Wells were then washed three times with wash buffer and incubated with various concentrations of biotinylated JAK2 WT peptide and biotinylated P-JAK2 WT peptide for 1 h at room temperature in blocking buffer. Following incubation, wells were washed five times with wash buffer to remove any unbound biotinylated peptides. Bound biotinylated peptides were detected by incubation with a 1:500 dilution of NEUTRAVIDIN biotin binding-protein conjugated with horseradish peroxidase (Molecular Probes, Eugene, Oreg.) in blocking buffer for 1 h at room temperature. Wells were then washed five times with wash buffer and developed with a solution of o-phenylenediamine (OPD) in stable peroxidase buffer (Pierce, Rockford, Ill.). The assay was stopped with the addition of 2 M H2SO4 (50 μl) to each well. Absorbance was measured using a 450 microplate reader (Bio-rad, Hercules, Calif.) at 490 nm. Control experiments were carried out as described above in the absence of immobilized peptides.

[2] = tested on: biotinylated JAK2 WT peptide binding to Tkip peptide; assay: ELISA peptide competition for biotinylated JAK2 WT binding to Tkip; parameters: species or system human; settings: FIG. 1B; unlabeled competitor peptide
Protocol: Peptide competition experiments were conducted using peptides derived from the JAK tyrosine kinase family, vascular endothelial growth factor receptor (VEGFR), and cyclin dependent kinase (CDK) to compete with biotinylated JAK2 WT peptide for binding to Tkip. Binding of biotinylated JAK2 WT was determined as above, except that following Tkip peptide immobilization, washing, and blocking in blocking buffer for 1 hr at room temperature unlabeled competitors were added to wells and incubated for 30 min at varying concentrations before biotinylated JAK2 WT peptide was incubated for 1 hr in each well to determine the extent of competition with unlabeled peptides. Detection and analysis of binding was carried out as described above.

[3] = tested on: MHC class I expression on WISH cells; assay: Flow cytometry of IFN-γ induced MHC class I expression on WISH cells; assay type: cell-based, human
Protocol: Flow Cytometry: WISH fibroblast cells (2×10^6) were incubated for 48 h with media alone, 25 μM MuIFNγ(95–125) peptide, or lipophilic Tkip (LT) at varying concentrations (1 μM, 10 μM, 25 μM) in the presence or absence of 5000 units/ml IFN-γ in 6-well culture plates at 37° C. in a 5% CO2 atmosphere. Following incubation, cells were washed twice with PBS and harvested by trypsinization into two sets of 5-ml round bottom polystyrene tubes (Fisher, Pittsburgh, Pa.) and washed twice with PBS. For cell surface staining a direct immunofluorescence protocol was employed. […] The fluorescent-conjugated isotype antibody was used to determine background fluorescence by identifying nonspecific binding of the monoclonal antibody to WISH cells. […] WISH fibroblast cells were finally resuspended in 500 μl of PBS and analyzed on a FACScan fluorescence-activated cell sorter (Becton Dickinson, San Jose, Calif.). […] The red fluorescence of R-PE was excited at 488 nm. […] The fluorescence intensity of the negative controls were subtracted from the mean fluorescence for the R-PE labeled cells. […] Flow cytometry data were analyzed using CellQuest analysis software (Becton Dickinson, San Jose, Calif.).

recombinant human JAK2 = target: T2, recombinant human JAK2 (Homo sapiens, UniProt O60674); assay: In vitro JAK2 kinase assay (32P, SDS-PAGE, autoradiography); assay type: biochemical; settings: peptide at 50 μM
T2 construct: purchased Upstate Biotechnology, Lake Placid, N.Y
Protocol: Determination of JAK2 autophosphorylation activity was performed in reaction mixtures containing recombinant human JAK2 immobilized on agarose beads (Upstate Biotechnology, Lake Placid, N.Y.), 1 μCi/μl of [^32P]γ-ATP (Amersham Biosciences, Piscataway, N.J.), and either Tkip or JAK 2 WT peptide incubated in kinase buffer (10 mM HEPES [pH 7.4], 50 mM sodium chloride, 0.1 mM sodium orthovanadate, 5 mM magnesium chloride, 5 mM manganese chloride). JAK2 kinase assays were performed in 35 μL reaction volumes containing 10.5 μL Tkip, 20 μL JAK2 agarose beads, 1 μL sIFNGR-1, and 3.5 μL [^32P]γ-ATP incubated at 30° C. for 30 min with intermittent agitation. […] EGFR, VEGFR, and JAK2 kinase reactions were terminated with the addition of 5 μl 6×SDS sample buffer (0.5 M Tris-HCl [pH 6.8], 36% glycerol, 10% SDS, 9.3% DTT, 0.012% bromophenol blue). Incubation of JAK2 agarose beads in SDS sample buffer (100° C.) was designed to elute bound proteins from the agarose beads. The reaction mixtures were separated on a 10% SDS polyacrilamide gel. Autoradiography was used to determine phosphorylation activity.

T2 sequence (O60674 whole entry): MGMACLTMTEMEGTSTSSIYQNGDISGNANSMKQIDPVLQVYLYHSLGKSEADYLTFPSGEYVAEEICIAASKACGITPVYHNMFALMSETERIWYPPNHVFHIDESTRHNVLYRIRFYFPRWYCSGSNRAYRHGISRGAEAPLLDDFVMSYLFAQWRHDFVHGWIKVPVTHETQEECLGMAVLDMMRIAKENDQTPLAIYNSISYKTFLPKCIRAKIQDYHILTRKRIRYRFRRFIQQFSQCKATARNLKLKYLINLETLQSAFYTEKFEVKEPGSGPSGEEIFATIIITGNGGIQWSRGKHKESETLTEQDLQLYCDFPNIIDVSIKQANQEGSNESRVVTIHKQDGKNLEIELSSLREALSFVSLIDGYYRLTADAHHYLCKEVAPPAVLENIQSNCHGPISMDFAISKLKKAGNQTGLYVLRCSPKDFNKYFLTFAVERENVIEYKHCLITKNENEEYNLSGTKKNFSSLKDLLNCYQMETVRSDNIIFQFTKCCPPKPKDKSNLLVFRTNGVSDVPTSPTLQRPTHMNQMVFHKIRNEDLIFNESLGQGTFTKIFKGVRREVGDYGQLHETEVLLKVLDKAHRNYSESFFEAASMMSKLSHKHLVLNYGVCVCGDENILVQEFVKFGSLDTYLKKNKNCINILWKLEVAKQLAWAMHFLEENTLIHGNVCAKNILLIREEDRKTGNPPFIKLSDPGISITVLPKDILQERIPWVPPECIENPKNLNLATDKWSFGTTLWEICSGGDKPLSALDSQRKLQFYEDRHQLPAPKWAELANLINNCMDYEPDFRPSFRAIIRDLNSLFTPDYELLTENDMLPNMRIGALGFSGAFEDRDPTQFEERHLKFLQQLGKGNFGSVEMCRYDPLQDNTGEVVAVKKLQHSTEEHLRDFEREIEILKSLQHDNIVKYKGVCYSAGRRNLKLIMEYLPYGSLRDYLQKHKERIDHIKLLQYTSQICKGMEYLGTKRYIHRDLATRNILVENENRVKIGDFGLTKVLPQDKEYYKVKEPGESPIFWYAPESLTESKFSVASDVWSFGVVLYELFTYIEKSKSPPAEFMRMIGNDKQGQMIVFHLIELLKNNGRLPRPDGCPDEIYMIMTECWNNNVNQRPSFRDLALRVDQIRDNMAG

Substance	binding of biotinylated JAK2 WT peptide to solid-phase peptide [1]	inhibition of biotinylated JAK2 WT peptide binding to Tkip peptide [2]	further results
SSDVRYVNAFKFM (amino acid sequence of a peptide used for control purposes) [VEGFR 1208–1222, vascular endothelial growth factor receptor autophosphorylation peptide]	negligible	neither CDK 41–61 nor VEGFR 1208–1222, inhibited	
control lipophilic peptide (IFN-γ 95–125): lipophilic irrelevant peptide MuIFN-γ(95–125) (AKFEVNNPQVQRQAFNELIRVVHQLLPESSL; also: lipophilic group, site not given here; UniProt P01580 117-147, looked up, fragment) [reference compound]			effect on IFN-γ upregulation of MHC class I expression ([3]; 10 μM or 25 μM Tkip (control 25 μM), 5000 U/ml human IFN-γ, 48 h): had no effect
human IFN-γ: human gamma interferon cytokine used as stimulus			increase in MHC class I as per FACS analysis ([3]; 5000 U/ml): over 3 fold
AKFEVNNPQVQRQAFNELIRVVHQLLPESSL (amino acid sequence of a peptide used for control purposes) [IFN-γ95–125]	negligible		
EMLVLLMALKLLA (amino acid sequence of a peptide that can be used according to the present invention)			inhibition of JAK2 autophosphorylation (recombinant human JAK2): inhibited autophosphorylation of JAK2 (lane 7 of FIG. 4, upper panel), although it was not as effective as the Tkip peptide
NGVLFLMIFHFLG (amino acid sequence of a peptide that can be used according to the present invention)			inhibition of JAK2 phosphorylation of IFNGR-1 (recombinant human JAK2): did inhibit
KTEGVPSTAIREISLLKELNH (amino acid sequence of a peptide used for control purposes) [CDK 41–61, cyclin-dependent kinase, cyclin box peptide 41–61]	negligible	neither CDK 41–61 nor VEGFR 1208–1222, inhibited	
LPQDKEYYKVKEP (amino acid sequence of a peptide used for control purposes) [JAK2 WT, JAK2 autophosphorylation site peptide, residues 1001-1013; control peptide, reference compound]		inhibited	inhibition of JAK2 autophosphorylation (recombinant human JAK2): had no effect; inhibition of JAK2 phosphorylation of IFNGR-1 (recombinant human JAK2): had no effect
